Read-outs that look alike come from different tables or passages of the source.
How the values were obtained:
[1] = target: ^bioχψδγ3δ’ clamp loader complex containing N-terminally biotinylated χ (E. coli) (UniProt P28905); experiment: SPR
[2] = target: ^bioχψδγ3δ’ clamp loader complex containing N-terminally biotinylated χ (E. coli) (UniProt P28905); experiment: SPR; remark: listed apart in the source
cryo-EM structure = target: the molecule itself; experiment: cryo-EM structure

| Kd [1] [nM] | Kd [2] [nM] | Molecule | binding result (cryo-EM structure) |
| --- | --- | --- | --- |
| 400 | 13.3 | E. coli β2 sliding clamp (from UniProt P0A988) (natural protein) |  |
|  |  | γ subunit of the E. coli clamp loader complex (natural protein) MSYQVLARKWRPQTFADVVGQEHVLTALANGLSLGRIHHAYLFSGTRGVGKTSIARLLAKGLNCETGITATPCGVCDNCREIEQGRFVDLIEIDAASRTKVEDTRDLLDNVQYAPARGRFKVYLIDEVHMLSRHSFNALLKTLEEPPEHVKFLLATTDPQKLPVTILSRCLQFHLKALDVEQIRHQLEHILNEEHIAHEPRALQLLARAAEGSLRDALSLTDQAIASGDGQVSTQAVSAMLGTLDDDQALSLVEAMVEANGERVMALINEAAARGIEWEALLVEMLGLLHRIAMVQLSPAALGNDMAAIELRMRELARTIPPTDIQLYYQTLLIGRKELPYAPDRRMGVEMTLLRALAFHPRMPLPEPEVPRQSFAPVAPTAVMTPTQVPPQPQSAPQQAPTVPLPETTSQVLAARQQLQRVQGATKAKKE | binds |

Reference: paper PMC11436948 (Nature Communications, 2024)
